Data published in patent US11278600B2, “Human alpha-galactosidase variants” (Codexis, Inc., priority 2014, dated 2022).
Numbering of substitutions follows the chain as printed.

B1: 281 (protein)
chain: LDNGLARTPTMGWLHWERFMCNLDCQEEPDSCISEKLFMEMAERMVSEGWKDAGYEYLCIDDCWMAPQRDSEGRLQADPQRFPHGIRQLANYVHSKGLKLGIYADVGNKTCAGFPGSFGYYDIDAQTFADWGVDLLKFDGCYCDSLENLADGYKHMSLALNRTGRSIVYSCEWPLYMWPFQKPNYTEIRQYCNHWRNFADIDDSWASVKSILDWTSFNQEKIVDVAGPGGWNDPDMLVIGNFGLSWNQQVTQMALWAIMAAPLFMSNDLRHISPQAKALLQDKDVIAINQDPLGKQGYQLRQGDNFEVWERPLSGLAWAVAVINRQEIGGPRSYTIAVASLGDGVACNPACFITQLLPVKRKLGLYEWTSRLKSHINPTGTVLLQLENTMQMSLKDLL
modifications: Synthetic Polypeptide sequence of Variant No. 281 of mature Human GLA
B2: 278 (protein)
chain: LDNGLARTPTMGWLHWERFMCNLDCQEEPDSCISEKLFMEMAERMVSEGWKDAGYEYLCIDDCWMAPQRDSEGRLQADPQRFPHGIRQLANYVHSKGLKLGIYADVGNKTCAGFPGSFGYYDIDAQTFADWGVDLLKFDGCYCDSLENLADGYKHMSLALNRTGRSIVYSCEWPLYMWPFQKPNYTEIRQYCNHWRNFADIDDSWASIKSILDWTSRNQERIVDVAGPGGWNDPDMLVIGNFGLSWDQQVTQMALWAIMAAPLFMSNDLRHISPQAKALLQDKDVIAINQDPLGKQGYQLRQGDNFEVWERPLSGDAWAVAMINRQEIGGPRSYTIAVASLGKGVACNPGCFITQLLPVKRKLGFYDWDSRLRSHINPTGTVLLQLENTMQMSLKDLL
modifications: Synthetic Polypeptide sequence of Variant No. 278 of mature Human GLA
B3: 279 (protein)
chain: B2 chain with Q302K, D316L, D367E, D369T
modifications: Synthetic Polypeptide sequence of Variant No. 279 of mature Human GLA
B4: 285 (protein)
chain: B2 chain with K96I, R217F, D247N, D316L, G350A, D367E, D369T
modifications: Synthetic Polypeptide sequence of Variant No. 285 of mature Human GLA
B5: 280 (protein)
chain: B2 chain with D247N, Q302K, D316L, G350A
modifications: Synthetic Polypeptide sequence of Variant No. 280 of mature Human GLA
B6: 282 (protein)
chain: B2 chain with R217F, D316L, A337P, G350A, D367E, D369T
modifications: Synthetic Polypeptide sequence of Variant No. 282 of mature Human GLA
B7: 287 (protein)
chain: B2 chain with Q302K, D316L, A337P, D367E, D369T
modifications: Synthetic Polypeptide sequence of Variant No. 287 of mature Human GLA
B8: 284 (protein)
chain: B1 chain with V208I, K221T, N247D, V322I, K373R, I376V
modifications: Synthetic Polypeptide sequence of Variant No. 284 of mature Human GLA
B9: 286 (protein)
chain: B2 chain with K96I, D316L, G350A, D367E, D369T
modifications: Synthetic Polypeptide sequence of Variant No. 286 of mature Human GLA
B10: 283 (protein)
chain: B2 chain with R217F, Q302K, D316L, A337P
modifications: Synthetic Polypeptide sequence of Variant No. 283 of mature Human GLA

Experiments:
Type in all cases: biochemical
[1] = HTP-analysis of supernatants pretreated with bovine serum (MUGal hydrolysis); conditions: activity of the variant/activity of Rd2BB (SEQ ID NO: 10), yeast culture supernatant
How it was run: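 Yeast INVSc1 culture supernatants containing secreted GLA variants were mixed with bovine serum (20:80) and held 1 h at 37° C. Serum-treated samples then reacted with MUGal (4 mM stock) in citrate/McIlvaine buffer (pH 4.3/4.8) for 180 min at 37° C., were quenched with sodium carbonate, and read by fluorescence (Ex 355, Em 448 nm).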

[2] = HTP-analysis of supernatants pretreated with acid (MUGal hydrolysis); conditions: challenge at pH 4.2; activity of the variant/activity of Rd2BB (SEQ ID NO: 10); yeast culture supernatant
How it was run: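 MUGal hydrolysis was tracked by fluorescence (Ex 355 nm, Em 448 nm) after a 30-180 min reaction at 37° C. in pH 4.8 McIlvaine/citrate buffer, stopped with 1 M sodium carbonate. Beforehand, yeast (INVSc1) culture supernatants carrying GLA variants were held 1-3 h at 37° C. in acidic McIlvaine buffer, pH 3.3-4.3.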

[3] = HTP-analysis of supernatants pretreated with base (MUGal hydrolysis); conditions: challenge at pH 7.6; activity of the variant/activity of Rd2BB (SEQ ID NO: 10); yeast culture supernatant
How it was run: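 GLA variants secreted from yeast INVSc1; culture supernatants pre-incubated with McIlvaine buffer pH 7.0–8.2 or 200 mM bicarbonate pH 9.1–9.7 at 37° C. for 1–18 h. Residual activity: MUGal (4 mM stock) hydrolysis at pH 4.3–4.8, 37° C., 30–180 min, carbonate quench; fluorescence Ex 355/Em 448 nm.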

[4] = HTP-analysis of yeast culture supernatants, no challenge (MUGal hydrolysis); conditions: activity of the variant/activity of Rd2BB (SEQ ID NO: 10), yeast culture supernatant
How it was run: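 GLA variants were expressed in INVSc1 yeast grown in SD-Ura broth with glucose at 30° C., and culture supernatants were collected after 66-84 h. Supernatant was mixed with McIlvaine buffer pH 4.8 and MUGal (2 mM stock) in 50 mM citrate, 200 mM KCl, pH 4.6, incubated at 37° C. for 30-180 minutes, then quenched with sodium carbonate.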

Molecule	Relative Activity of GLA Variants After Challenge with Serum [1]	Relative Activity of GLA Variants After Challenge at pH 4.2 [2]	Relative Activity of GLA Variants After Challenge at pH 7.6 [3]	Relative Activity of GLA Variants After No Challenge (NC) [4]
B1	+ (+ = 0.5 to 1.5 relative activity over Rd2BB (SEQ ID NO: 10))	+ (+ = 0.5 to 1.5 relative activity over Rd2BB (SEQ ID NO: 10))	+ (+ = 0.5 to 1.5 relative activity over Rd2BB (SEQ ID NO: 10))	+ (+ = 0.5 to 1.5 relative activity over Rd2BB (SEQ ID NO: 10))
B2	+++ (+++ = >2.5 relative activity over Rd2BB (SEQ ID NO: 10))	+++ (+++ = >2.5 relative activity over Rd2BB (SEQ ID NO: 10))	+++ (+++ = >2.5 relative activity over Rd2BB (SEQ ID NO: 10))	+++ (+++ = >2.5 relative activity over Rd2BB (SEQ ID NO: 10))
B3	+++ (+++ = >2.5 relative activity over Rd2BB (SEQ ID NO: 10))	+++ (+++ = >2.5 relative activity over Rd2BB (SEQ ID NO: 10))	+++ (+++ = >2.5 relative activity over Rd2BB (SEQ ID NO: 10))	++ (++ = 1.5 to 2.5 relative activity over Rd2BB (SEQ ID NO: 10))
B4	+ (+ = 0.5 to 1.5 relative activity over Rd2BB (SEQ ID NO: 10))	+ (+ = 0.5 to 1.5 relative activity over Rd2BB (SEQ ID NO: 10))	++ (++ = 1.5 to 2.5 relative activity over Rd2BB (SEQ ID NO: 10))	+ (+ = 0.5 to 1.5 relative activity over Rd2BB (SEQ ID NO: 10))
B5	+ (+ = 0.5 to 1.5 relative activity over Rd2BB (SEQ ID NO: 10))	+ (+ = 0.5 to 1.5 relative activity over Rd2BB (SEQ ID NO: 10))	+ (+ = 0.5 to 1.5 relative activity over Rd2BB (SEQ ID NO: 10))	+ (+ = 0.5 to 1.5 relative activity over Rd2BB (SEQ ID NO: 10))
B6	+ (+ = 0.5 to 1.5 relative activity over Rd2BB (SEQ ID NO: 10))	+ (+ = 0.5 to 1.5 relative activity over Rd2BB (SEQ ID NO: 10))	+ (+ = 0.5 to 1.5 relative activity over Rd2BB (SEQ ID NO: 10))	+ (+ = 0.5 to 1.5 relative activity over Rd2BB (SEQ ID NO: 10))
B7	++ (++ = 1.5 to 2.5 relative activity over Rd2BB (SEQ ID NO: 10))	+++ (+++ = >2.5 relative activity over Rd2BB (SEQ ID NO: 10))	+++ (+++ = >2.5 relative activity over Rd2BB (SEQ ID NO: 10))	+++ (+++ = >2.5 relative activity over Rd2BB (SEQ ID NO: 10))
B8	+++ (+++ = >2.5 relative activity over Rd2BB (SEQ ID NO: 10))	+++ (+++ = >2.5 relative activity over Rd2BB (SEQ ID NO: 10))	+++ (+++ = >2.5 relative activity over Rd2BB (SEQ ID NO: 10))	+++ (+++ = >2.5 relative activity over Rd2BB (SEQ ID NO: 10))
B9	+ (+ = 0.5 to 1.5 relative activity over Rd2BB (SEQ ID NO: 10))	+ (+ = 0.5 to 1.5 relative activity over Rd2BB (SEQ ID NO: 10))	++ (++ = 1.5 to 2.5 relative activity over Rd2BB (SEQ ID NO: 10))	+ (+ = 0.5 to 1.5 relative activity over Rd2BB (SEQ ID NO: 10))
B10	+++ (+++ = >2.5 relative activity over Rd2BB (SEQ ID NO: 10))	+++ (+++ = >2.5 relative activity over Rd2BB (SEQ ID NO: 10))	+++ (+++ = >2.5 relative activity over Rd2BB (SEQ ID NO: 10))	+++ (+++ = >2.5 relative activity over Rd2BB (SEQ ID NO: 10))
